In patent publication US20170306031A1 (NGM BIOPHARMACEUTICALS, published 2017):

T1: mouse GFRAL (analyte in Biacore assays) (mouse, UniProt Q6SJE0 20-349, limits assumed)
T1 construct: injected in solution over captured antibody
T1 sequence: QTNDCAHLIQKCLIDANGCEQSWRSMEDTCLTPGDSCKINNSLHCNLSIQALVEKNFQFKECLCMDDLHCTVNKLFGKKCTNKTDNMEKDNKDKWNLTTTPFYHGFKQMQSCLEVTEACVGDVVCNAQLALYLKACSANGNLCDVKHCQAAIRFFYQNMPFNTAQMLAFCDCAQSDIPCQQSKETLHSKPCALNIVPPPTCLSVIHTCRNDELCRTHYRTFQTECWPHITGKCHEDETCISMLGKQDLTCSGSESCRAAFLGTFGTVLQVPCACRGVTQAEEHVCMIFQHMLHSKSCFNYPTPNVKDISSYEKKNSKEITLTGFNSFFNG

T2: human GFRAL (analyte in Biacore assays) (human, UniProt Q6UXV0 19-351, limits assumed)
T2 construct: injected in solution over captured antibody; also called hGFRAL
T2 sequence: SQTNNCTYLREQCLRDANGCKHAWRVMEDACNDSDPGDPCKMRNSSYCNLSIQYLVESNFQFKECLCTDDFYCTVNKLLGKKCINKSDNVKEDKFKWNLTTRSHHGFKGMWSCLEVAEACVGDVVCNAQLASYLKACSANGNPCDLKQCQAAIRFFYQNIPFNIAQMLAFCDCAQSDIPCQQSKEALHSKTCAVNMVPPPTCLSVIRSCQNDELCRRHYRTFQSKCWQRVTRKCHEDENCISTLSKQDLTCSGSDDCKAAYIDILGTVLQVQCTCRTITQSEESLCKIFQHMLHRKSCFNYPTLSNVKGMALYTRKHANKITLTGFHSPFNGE

T3: human GFRAL expressed on cells (human, UniProt Q6UXV0 20-394)
T3 sequence: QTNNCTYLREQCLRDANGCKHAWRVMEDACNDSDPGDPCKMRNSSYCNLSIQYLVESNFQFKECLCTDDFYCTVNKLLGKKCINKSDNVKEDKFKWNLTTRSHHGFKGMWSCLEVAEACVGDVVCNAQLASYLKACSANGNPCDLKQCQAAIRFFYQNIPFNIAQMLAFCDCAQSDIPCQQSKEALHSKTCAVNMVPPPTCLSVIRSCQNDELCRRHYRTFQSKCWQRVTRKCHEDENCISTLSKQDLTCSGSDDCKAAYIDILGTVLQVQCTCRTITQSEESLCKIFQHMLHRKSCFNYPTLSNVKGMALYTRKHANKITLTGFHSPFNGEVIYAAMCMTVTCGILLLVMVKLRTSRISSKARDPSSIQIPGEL

B1: antibody designated 6G9 (antibody, V domains shown)
VH: QVQLHQPGAELVKPGASVKLSCKTSGYTFTSYWMQWVKQRPGQGLEWIGEIDPSDSYTNYNQKFKGKATLTVDTSSTTAYMQLSSLTSEDSAVYYCARPLDRSAYYFDYWGQGTTLTVSS
VL: DIVLTQSPASLAVSLGQRATISCRASESVDFSGNSFMHWYQQKPGQPPKLLIYRASNLDSGIPARFSGVGSRTDFTLTINPVEADDVATYYCQQSNEDPYTFGGGTKLEIE
notes: mouse hybridoma monoclonal
B2: antibody designated 1B3 (antibody, V domains shown)
VH: QVHLQQPGAELVKPGASVKLSCKASGFTFTGYNINWVRLRPEQGLEWIGWIFPGDDNAKYNEKFKGKATLTTDKSSNTAYMQLSRLTSEDSAVYFCARTPVLSNYFDYWGQGTTLTVSS
VL: DIQMTQSPSSLSASLGGKVTITCKASQDISKYISWYQHKPGKSPRLLIHYTSTLQPGIPSRFSGSGSGRDYSFSISNLEPEDIATYYCLQYDNLYTFGGGTKLEIK
notes: mouse hybridoma monoclonal
B3: antibody designated 1A3 (antibody, V domains shown)
VH: EVQLQQSGPELVKPGASVKISCKASGFTFTDYYMNWVKQSHGKSLEWIGDIIPNNGVTSYNQKFKGKATLTVDKSSSTAYMELRSLTSEDSAVYYCAREWLLRGMDYWGQGTSVTVSS
VL: DIVMTQAAFSNPVTLGTSASISCRSSKSLLHSNGITYLYWYLQKPGQSPQLLIYQMSNLASGVPDRFSSSGSGTDFTLRISRVEAEDVGVYYCAQHLELTWTFGGGTKLEIK
notes: mouse hybridoma monoclonal
B4: antibody designated P1B6 (antibody, V domains shown)
VH: EVQLQQSGPELVKPGASVKMSCKASGYTFTDYYMNWVKQTHGKSLEWIGDINPNNGGPIYNQKFKGKATLTVDKSSSTAYMELRSLTSEDSAVYYCARSDSAWFTYWGQGTLVTVSA
VL: QIVLTQSPAIMSASPGEKVTMTCSASSSVSYMYWYQQKPGSSPRLLIYDTSNLASGVPVRFSGSGSGTFYSITISRMEAEDAATYYCQQWNSYPPTFGGGTKLEIK
notes: mouse hybridoma monoclonal
B5: antibody designated P1H8 (antibody, V domains shown)
VH: EVQLQQSGPELVKPGASVKISCKASGYTFTDYYMNWVKQSHGKSLEWIGDINPNNGGTTYNQKFKGKATLTVDKSSSTAYMELRSLTSEDSAVYYCARQGPWYFDVWGTGTTVTVSS
VL: DVLMTQTPLSLPVSLGDQASISCRSSQTIVHSNGYTYLEWYLQKPGQSPKLLIYKVSNRFSGVPDRFSGSGSGTDFTLKISRVEAEDLGVYYCFQGSHVPWTFGGGTKLEIK
notes: mouse hybridoma monoclonal
B6: antibody designated 6N16 (antibody, V domains shown)
VH: QVQLQQSGSELVKPGTSMKLSCKASGYTFTSYNINWVRLRPEQGLEWIGWIFPGDDSIKYNENFRGKATLTTDKSSSTAYMHLSRLTSDDSAVYFCARSGIFYGNNFAYWGQGTLVTVSA
VL: DVVMTQAPLILSVTIGQPASISCKSSQSLLDGDGETYLSWLLQRPGQSPKRLIYLVSKLDSGVPDRFTGSGSGTDFTLKISRVEAEDLGVYYCCQSTHFPLTFGAGTKLELK
notes: mouse hybridoma monoclonal
B7: antibody designated 2B11 (antibody, V domains shown)
VH: DVQLQESGPGLVKPSQSLSLTCSVTGYSITSGYYWNWIRQFPGNKLEWMGHIANDGSNYYNPFLKHRVSITRDTSKNQFFLKLNSVTIQDTATYYCARGGSYFDYVDYWGQGTTLTVSS
VL: DIQMTQTTSSLSASLGDRVTINCRASQDISNYLNWYQQKPDGTVKLLIYYTSRLHSGVPSRFSGSGSGTDYSLTITNLEQEDIATYFCQQGNTLPFTFGSGTKLEIK
notes: mouse hybridoma monoclonal
B8: antibody designated P8G4 (antibody, V domains shown)
VH: QVQLKQSGPGLVQPSQSLSITCTVSGFSLTSYGVHWVRQSPGKGLDWLGVLWSGGSTDYNAAFISRLSISKDNSKSQVFFKMNSLQADDTAIYYCARNFGDYWGQGTSVTVSS
VL: QIVLTQSPAIMSASPGEKVTMTCSASSRVSYMHWYQQKSGTSPKRWIYDTSKLASGVPARFSGSGSGTSYSLTISSMEAEDAATYYCQQWNNNPPTFGAGTTLELK
notes: mouse hybridoma monoclonal
B9: antibody designated 2I23 (antibody, V domains shown)
VH: QAQLQQSGAELVKPGASVKLSCKASGYSFTSYNIDWVRQRPEQGLEWIGWIFPGDGSTKYNEKFKGQATLTTDKSSSTTYIHLSRLTSEDSAVYFCARSGIYYGSHFVYWGQGTLVTVSA
VL: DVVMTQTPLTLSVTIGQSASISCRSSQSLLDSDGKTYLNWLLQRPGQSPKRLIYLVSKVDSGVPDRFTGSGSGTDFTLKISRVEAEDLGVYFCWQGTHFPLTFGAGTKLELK
notes: mouse hybridoma monoclonal
B10: antibody designated 8C10 (antibody, V domains shown)
VH: QVQLQQSGVELARPGAAVKLSCKASGYTFANYGLTWVKQRTGQGLEWIGEIYPGSGHTHYNEDFKGKATLTADRSSSTAYMELRSLTSEDSAVYFCARRIQLLLPVGGFVYWGQGTLVTVSA
VL: DFVLTQSPATLSVTPGDSVSLSCRASQSISNNLHWYQQKSHESPRLLIKYASQSISGIPSRFSGSGSGTDFTLSINSVETEDFGVYFCQQSNSWPHTFGGGTKLEIK
notes: mouse hybridoma monoclonal
B11: humanized anti-GFRAL antibody HC-375g/LC-375a (antibody, IgG1, V domains shown)
VH: QVQLVQSGAEVKKPGSSVKVSCKASGYTFTDYYINWVRQAPGQGLEWIARIYPGNGNTYHNEKFKGRATLTADKSTSTAYMELSSLRSEDTAVYYCAREGLYYDYDRYFDYWGQGTLVTVSS
VL: DIVMTQSPDSLAVSLGERATINCRASESVDTYGNSFMHWYQQKPGQPPKLLIYLASNLESGVPDRFSGSGSGTDFTLTISSLQAEDVAVYYCHQNNEDPPAFGGGTKVEIK
notes: humanized 5F12
B12: humanized anti-GFRAL antibody HC-375g/LC-375j (antibody, IgG1, V domains shown)
VH: B11 VH
VL: DIVLTQSPLSLPVTLGQPASISCRASESVDTYGNSFMHWYQQRPGQSPRLLIYLASNLESGVPDRFSGSGSRTDFTLKISRVEAEDVGVYYCHQNNEDPPAFGGGTKVEIK
notes: humanized 5F12

target: T1, mouse GFRAL (analyte in Biacore assays); assay: Biacore SPR, antibody captured, GFRAL injected
Procedure: (§1) In addition, the binding affinity of antibodies to human and mouse GFRAL were measured. For example, antibodies were rank ordered based on their binding affinity to human GFRAL and mouse GFRAL by low resolution KD measurement by Biacore. Briefly, an anti-mouse Fc antibody (Sigma-Aldrich, St. Louis, Mo.) was immobilized on all four flow cells of a CM5 chip using amine coupling reagents (GE Healthcare LifeSciences, Piscataway, N.J.). Purified antibodies were captured (˜100 RUs) on flow cells 2, 3 and 4 using flow cell 1 as a reference. This was followed by injection of human or mouse GFRAL (25 nM in PBS-P buffer) at a flow rate of 70 μL/m in and monitoring the binding kinetics at 25° C.
(§2) Binding affinity measurements were also made in additional Biacore based assays. For example, equilibrium dissociation constant (KD) measurements were carried out with purified antibodies to evaluate their binding to human GFRAL or mouse GFRAL. As mentioned above, anti-mouse Fc antibody (Sigma-Aldrich, St. Louis, Mo.) was immobilized on all four flow cells of a CM5 chip using amine coupling reagents (GE Healthcare LifeSciences, Piscataway, N.J.). Purified antibodies were captured (˜100 RUs) on flow cells 2, 3 and 4 using flow cell 1 as a reference. This was followed by injection of human or mouse GFRAL in PBS-P buffer) at a flow rate of 70 μL/min and the binding kinetics were evaluated at 25° C.

| binding result | Kd [nM] | koff [s⁻¹] | Binder |
| --- | --- | --- | --- |
| no binding |  |  | B1 |
|  | 4.4 | 0.00107 | B2 |
| no binding |  |  | B3 |
| no binding |  |  | B4 |
| no binding |  |  | B5 |
| no binding |  |  | B6 |
|  | 3.7 | 0.00144 | B7 |
| no binding |  |  | B8 |
| no binding |  |  | B9 |

target: T2, human GFRAL (analyte in Biacore assays); assay: Biacore SPR, antibody captured, GFRAL injected
Procedure: as §1, §2

| Kd [nM] | koff [s⁻¹] | Binder |
| --- | --- | --- |
| < 0.1 |  | B1 |
| < 0.1 | 7.2e-05 | B10 |
| < 0.1 |  | B2 |
| 0.11 | 7.57e-05 | B3 |
| 0.14 | 9.72e-05 | B4 |
| 0.21 | 8.99e-05 | B5 |
| 0.16 | 9.93e-05 | B6 |
| 0.1 | 8.45e-05 | B7 |
| 0.21 | 0.000276 | B8 |
| 0.23 | 6.77e-05 | B9 |

target: T3, human GFRAL expressed on cells; assay: cell-based or functional assay

| IC50, ELK1-luciferase reporter (hGFRAL/hRET) [nM] | Binder |
| --- | --- |
| 2.65 | B1 |
| 1.79 | B10 |
| 4.14 | B2 |
| 1.62 | B6 |
| 7.9 | B7 |
| 7.18 | B9 |

target: T2, human GFRAL (analyte in Biacore assays); assay: Biacore SPR, antibody captured, human GFRAL injected
Procedure: Exemplary humanized anti-GFRAL antibodies identified in Example 6 were assayed for their binding affinity to human GFRAL. Binding affinity measurements were made in Biacore based assays. For example, equilibrium dissociation constant (KD) measurements were carried out with purified antibodies to evaluate their binding to human GFRAL. Using methods described in Example II, anti-mouse Fc antibody (Sigma-Aldrich, St. Louis, Mo.) was immobilized on all four flow cells of a CM5 chip using amine coupling reagents (GE Healthcare LifeSciences, Piscataway, N.J.). Purified humanized anti-GFRAL antibodies were captured (˜100 RUs) on flow cells 2, 3 and 4 using flow cell 1 as a reference. This was followed by injection of human GFRAL in PBS-P buffer) at a flow rate of 70 μL/min and the binding kinetics were evaluated at 25° C.

| Kd [nM] | Binder |
| --- | --- |
| 0.028 | B11 |
| 0.057 | B12 |

target: T3, human GFRAL expressed on cells; assay: cell-based or functional assay; remark: another data set of the same source

| IC50, ERK phosphorylation in U2OS hGFRAL/hRET cells [nM] | Binder |
| --- | --- |
| 0.17 | B1 |
| 0.28 | B10 |
| 0.57 | B2 |
| 0.27 | B6 |
| 0.46 | B7 |
